Results as given in article PMC3863973 (Nature Communications, 2013).

B1: FLAG-tagged KaiC-WT (enzyme)
chain: MTSAEMTSPNNNSEHQAIAKMRTMIEGFDDISHGGLPIGRSTLVSGTSGTGKTLFSIQFLYNGIIEFDEPGVFVTFEETPQDIIKNARSFGWDLAKLVDEGKLFILDASPDPEGQEVVGGFDLSALIERINYAIQKYRARRVSIDSVTSVFQQYDASSVVRRELFRLVARLKQIGATTVMTTERIEEYGPIARYGVEEFVSDNVVILRNVLEGERRRRTLEILKLRGTSHMKGEYPFTITDHGINIFPLGAMRLTQRSSNVRVSSGVVRLDEMCGGGFFKDSIILATGATGTGKTLLVSRFVENACANKERAILFAYEESRAQLLRNAYSWGMDFEEMERQNLLKIVCAYPESAGLEDHLQIIKSEINDFKPARIAIDSLSALARGVSNNAFRQFVIGVTGYAKQEEITGLFTNTSDQFMGAHSITDSHISTITDTIILLQYVEIRGEMSRAINVFKMRGSWHDKAIREFMISDKGPDIKDSFRNFERIISGSPTRITVDEKSELSRIVRGVQEKGPES
B2: His-tagged KaiC-AA (enzyme)
chain: MTSAEMTSPNNNSEHQAIAKMRTMIEGFDDISHGGLPIGRSTLVSGTSGTGKTLFSIQFLYNGIIEFDEPGVFVTFEETPQDIIKNARSFGWDLAKLVDEGKLFILDASPDPEGQEVVGGFDLSALIERINYAIQKYRARRVSIDSVTSVFQQYDASSVVRRELFRLVARLKQIGATTVMTTERIEEYGPIARYGVEEFVSDNVVILRNVLEGERRRRTLEILKLRGTSHMKGEYPFTITDHGINIFPLGAMRLTQRSSNVRVSSGVVRLDEMCGGGFFKDSIILATGATGTGKTLLVSRFVENACANKERAILFAYEESRAQLLRNAYSWGMDFEEMERQNLLKIVCAYPESAGLEDHLQIIKSEINDFKPARIAIDSLSALARGVSNNAFRQFVIGVTGYAKQEEITGLFTNTSDQFMGAHSITDSHIAAITDTIILLQYVEIRGEMSRAINVFKMRGSWHDKAIREFMISDKGPDIKDSFRNFERIISGSPTRITVDEKSELSRIVRGVQEKGPES
B3: His-tagged KaiC-DA (enzyme)
chain: MTSAEMTSPNNNSEHQAIAKMRTMIEGFDDISHGGLPIGRSTLVSGTSGTGKTLFSIQFLYNGIIEFDEPGVFVTFEETPQDIIKNARSFGWDLAKLVDEGKLFILDASPDPEGQEVVGGFDLSALIERINYAIQKYRARRVSIDSVTSVFQQYDASSVVRRELFRLVARLKQIGATTVMTTERIEEYGPIARYGVEEFVSDNVVILRNVLEGERRRRTLEILKLRGTSHMKGEYPFTITDHGINIFPLGAMRLTQRSSNVRVSSGVVRLDEMCGGGFFKDSIILATGATGTGKTLLVSRFVENACANKERAILFAYEESRAQLLRNAYSWGMDFEEMERQNLLKIVCAYPESAGLEDHLQIIKSEINDFKPARIAIDSLSALARGVSNNAFRQFVIGVTGYAKQEEITGLFTNTSDQFMGAHSITDSHIDAITDTIILLQYVEIRGEMSRAINVFKMRGSWHDKAIREFMISDKGPDIKDSFRNFERIISGSPTRITVDEKSELSRIVRGVQEKGPES
B4: His-tagged KaiC-AE (enzyme)
chain: MTSAEMTSPNNNSEHQAIAKMRTMIEGFDDISHGGLPIGRSTLVSGTSGTGKTLFSIQFLYNGIIEFDEPGVFVTFEETPQDIIKNARSFGWDLAKLVDEGKLFILDASPDPEGQEVVGGFDLSALIERINYAIQKYRARRVSIDSVTSVFQQYDASSVVRRELFRLVARLKQIGATTVMTTERIEEYGPIARYGVEEFVSDNVVILRNVLEGERRRRTLEILKLRGTSHMKGEYPFTITDHGINIFPLGAMRLTQRSSNVRVSSGVVRLDEMCGGGFFKDSIILATGATGTGKTLLVSRFVENACANKERAILFAYEESRAQLLRNAYSWGMDFEEMERQNLLKIVCAYPESAGLEDHLQIIKSEINDFKPARIAIDSLSALARGVSNNAFRQFVIGVTGYAKQEEITGLFTNTSDQFMGAHSITDSHIAEITDTIILLQYVEIRGEMSRAINVFKMRGSWHDKAIREFMISDKGPDIKDSFRNFERIISGSPTRITVDEKSELSRIVRGVQEKGPES

Assays:
[1] = biological target: mutant KaiC (His-tagged KaiC-AA, -DE, -DA or -AE, as a group); test: pull-down
His-tagged KaiC-AA = biological target: B2; test: pull-down
His-tagged KaiC-AE = biological target: B4; test: pull-down
His-tagged KaiC-DA = biological target: B3; test: pull-down
His-tagged KaiC-WT = biological target: T1, His-tagged KaiC-WT (Synechococcus elongatus PCC 7942, UniProt Q79PF4 1-519); test: pull-down
T1 sequence: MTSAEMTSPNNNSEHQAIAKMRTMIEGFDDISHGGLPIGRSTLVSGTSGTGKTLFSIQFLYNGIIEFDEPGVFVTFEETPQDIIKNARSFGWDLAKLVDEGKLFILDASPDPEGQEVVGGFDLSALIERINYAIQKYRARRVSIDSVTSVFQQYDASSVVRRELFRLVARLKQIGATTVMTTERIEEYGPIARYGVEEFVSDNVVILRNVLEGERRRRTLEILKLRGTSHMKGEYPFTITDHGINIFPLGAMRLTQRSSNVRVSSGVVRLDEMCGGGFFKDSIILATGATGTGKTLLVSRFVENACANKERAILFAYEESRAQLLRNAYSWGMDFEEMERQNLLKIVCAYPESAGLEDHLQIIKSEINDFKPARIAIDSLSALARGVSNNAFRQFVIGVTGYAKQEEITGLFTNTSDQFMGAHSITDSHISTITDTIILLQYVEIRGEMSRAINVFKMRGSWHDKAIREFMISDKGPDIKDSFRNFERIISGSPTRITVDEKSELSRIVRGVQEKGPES

FLAG-tagged KaiC-E318Q = biological target: T2, FLAG-tagged KaiC-E318Q (Synechococcus elongatus PCC 7942, UniProt Q79PF4 1-519, E318Q); test: co-IP
T2 sequence: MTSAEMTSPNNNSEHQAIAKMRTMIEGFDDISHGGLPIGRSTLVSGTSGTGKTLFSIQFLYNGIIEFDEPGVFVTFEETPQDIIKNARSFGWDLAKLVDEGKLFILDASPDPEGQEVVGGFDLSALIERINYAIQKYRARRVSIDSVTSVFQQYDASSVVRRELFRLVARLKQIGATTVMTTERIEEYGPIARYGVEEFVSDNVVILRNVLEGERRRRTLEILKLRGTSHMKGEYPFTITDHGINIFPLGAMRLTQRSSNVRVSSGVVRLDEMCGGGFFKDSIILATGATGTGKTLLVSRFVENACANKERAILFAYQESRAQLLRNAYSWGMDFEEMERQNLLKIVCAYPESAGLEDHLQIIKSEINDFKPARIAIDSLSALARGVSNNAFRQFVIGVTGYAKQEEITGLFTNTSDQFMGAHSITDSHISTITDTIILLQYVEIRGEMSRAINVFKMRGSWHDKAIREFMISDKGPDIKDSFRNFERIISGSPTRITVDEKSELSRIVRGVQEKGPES

FLAG-tagged KaiC-WT = biological target: B1; test: co-IP

Binder: B1
stoichiometry N [1]: 4 to 5
binding result (His-tagged KaiC-AA): binds
binding result (His-tagged KaiC-AE): binds
binding result (His-tagged KaiC-DA): binds
binding result (His-tagged KaiC-WT): binds

Binder: B2
stoichiometry N (FLAG-tagged KaiC-E318Q): 1

Binder: B3
stoichiometry N (FLAG-tagged KaiC-WT): ~1

Binder: B4
stoichiometry N (FLAG-tagged KaiC-WT): ~1
